# Results as given in US7754689B2, “Finger-1 peptide analogs of the TGF-β superfamily” (Wyeth LLC, priority 2006, dated 2010).
# Several values for one entry are separate records, joined by “and”; a condition that tells them apart may be missing. Identical values can stand only once.
# T1: BMP-12 (Homo sapiens, UniProt Q7Z4P5)
# T1 sequence (Q7Z4P5 322-450): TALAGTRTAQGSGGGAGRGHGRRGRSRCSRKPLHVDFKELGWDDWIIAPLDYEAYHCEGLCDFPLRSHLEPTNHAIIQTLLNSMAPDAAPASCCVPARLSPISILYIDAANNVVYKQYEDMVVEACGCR
# B1: BMP-12: Bone Morphogenic Protein, member of the TGF-β superfamily; tested in solution and immobilized on Sepharose beads as affinity ligand (protein)
# chain: T1 sequence (Q7Z4P5 322-450)
# Columns and labels:
# BMP-12 = biological target: T1, BMP-12; assay: Affinity column chromatography, capture and elution of BMP-12; type: binding
# Method: BMP-12 was immobilized on NHS-activated Sepharose™ beads at a ratio of about 20 mg:4 mL and the resulting media combined with water or neutral saline buffer to prepare a column. CHO-conditioned media augmented with 1.2 M NaCl was loaded onto the column. In some cases, the media was preconcentrated with respect to BMP before loading. The column was washed with 15 CV (column volumes) of 1.2 M NaCl in 40 mM Na2HPO4 at pH 7.2, followed by 0.5 M arginine/0.5 M NaCl in 20 mM Tris at pH 7.5 (15 CV) and a low salt wash (50 mM ammonium acetate at pH 7, 15 CV). […] Finally, the column was eluted with 5CV of the acetic acid solution with 6M guanidine hydrochloride (GuHCl).
# BMP-12 was loaded and eluted from a BMP-12 affinity column as in Example 1.
# BMP-12 was purified using a column prepared with the BMP-12 wild type peptide described in Example 7.
# [1] = BMP solubility screen: A320 turbidity of BMP-12 solutions; type: physicochemical; settings: 50 mM Tris pH 8, 0.5 mg/mL BMP-12
# Method: BMP Solubility Screen—A Tecan liquid-handling robot was used to mix a master plate of reagents, 800 μL×1.25 concentration (for each solution; see Tables 2 and 3), each in 50 mM Tris buffer at pH 8. An eight-channel pipettor was used to transfer 80 μL of material from the master plate into a half-area UV microplate, from which A320 was read from each sample to define a blank. A repeat-pipettor was used to add 20 μL of 2.5 mg/mL BMP-12 in 0.1% TFA to make a 0.5 mg/mL solution, which was then agitated at 14000 rpm. The UV absorption (A320) was read and the blank absorption subtracted to determine solubility. The procedure was repeated with a wider range of 2-methyl-2,4-pentanediol (MPD) concentrations and a finer set of salt concentrations (Table 4).
molecule,measurement,setting,value
B1,capture of BMP-12 by column with immobilized ligand,BMP-12; high salt / high ionic strength load,effectively captured
same,elution of BMP-12 from column with immobilized ligand,"BMP-12; washes, then gradient to 50 mM acetic acid pH 3, then 6M GuHCl",eluted with acetic acid and guanidine
same,A320 minus blank (turbidity),"[1]; NaCl 0 M, 1-propanol 0%",1.724
same,A320 minus blank (turbidity),"[1]; NaCl 0 M, 1-propanol 2.5%",1.848
same,A320 minus blank (turbidity),"[1]; NaCl 0 M, 1-propanol 5%",2.134
same,A320 minus blank (turbidity),"[1]; NaCl 0 M, 1-propanol 10%",2.000
same,A320 minus blank (turbidity),"[1]; NaCl 0 M, 1-propanol 15%",3.172
same,A320 minus blank (turbidity),"[1]; NaCl 0 M, 1-propanol 25%",1.419
same,A320 minus blank (turbidity),"[1]; NaCl 0 M, 2-methyl-2,4-pentanediol 2.5%",1.936
same,A320 minus blank (turbidity),"[1]; NaCl 0 M, 2-methyl-2,4-pentanediol 5%",2.122
same,A320 minus blank (turbidity),"[1]; NaCl 0 M, 2-methyl-2,4-pentanediol 10%",2.148
same,A320 minus blank (turbidity),"[1]; NaCl 0 M, 2-methyl-2,4-pentanediol 15%",2.035
same,A320 minus blank (turbidity),"[1]; NaCl 0 M, 2-methyl-2,4-pentanediol 20%",2.136
same,A320 minus blank (turbidity),"[1]; NaCl 0 M, 2-methyl-2,4-pentanediol 25%",2.631
same,A320 minus blank (turbidity),"[1]; NaCl 0.00 M, 2-methyl-2,4-pentanediol 30%",3.443
same,A320 minus blank (turbidity),"[1]; NaCl 0.00 M, 2-methyl-2,4-pentanediol 35%",3.006
same,A320 minus blank (turbidity),"[1]; NaCl 0.00 M, 2-methyl-2,4-pentanediol 40%",3.519
same,A320 minus blank (turbidity),"[1]; NaCl 0.00 M, 2-methyl-2,4-pentanediol 45%",3.308
same,A320 minus blank (turbidity),"[1]; NaCl 0.05 M, 2-methyl-2,4-pentanediol 25%",1.994
same,A320 minus blank (turbidity),"[1]; NaCl 0.05 M, 2-methyl-2,4-pentanediol 30%",0.979
same,A320 minus blank (turbidity),"[1]; NaCl 0.05 M, 2-methyl-2,4-pentanediol 35%",0.376
same,A320 minus blank (turbidity),"[1]; NaCl 0.05 M, 2-methyl-2,4-pentanediol 40%",0.330
same,A320 minus blank (turbidity),"[1]; NaCl 0.05 M, 2-methyl-2,4-pentanediol 45%",0.318
same,A320 minus blank (turbidity),"[1]; NaCl 0.1 M, 1-propanol 0%",1.745
same,A320 minus blank (turbidity),"[1]; NaCl 0.1 M, 1-propanol 2.5%",2.135
same,A320 minus blank (turbidity),"[1]; NaCl 0.1 M, 1-propanol 5%",2.212
same,A320 minus blank (turbidity),"[1]; NaCl 0.1 M, 1-propanol 10%",1.945
same,A320 minus blank (turbidity),"[1]; NaCl 0.1 M, 1-propanol 15%",3.199
same,A320 minus blank (turbidity),"[1]; NaCl 0.1 M, 1-propanol 25%",0.104
same,A320 minus blank (turbidity),"[1]; NaCl 0.1 M, 2-methyl-2,4-pentanediol 2.5%",1.900
same,A320 minus blank (turbidity),"[1]; NaCl 0.1 M, 2-methyl-2,4-pentanediol 5%",2.338
same,A320 minus blank (turbidity),"[1]; NaCl 0.1 M, 2-methyl-2,4-pentanediol 10%",2.341
same,A320 minus blank (turbidity),"[1]; NaCl 0.1 M, 2-methyl-2,4-pentanediol 15%",2.287
same,A320 minus blank (turbidity),"[1]; NaCl 0.1 M, 2-methyl-2,4-pentanediol 20%",2.573
same,A320 minus blank (turbidity),"[1]; NaCl 0.1 M, 2-methyl-2,4-pentanediol 25%",0.715 and 0.626
same,A320 minus blank (turbidity),"[1]; NaCl 0.10 M, 2-methyl-2,4-pentanediol 30%",0.206
same,A320 minus blank (turbidity),"[1]; NaCl 0.10 M, 2-methyl-2,4-pentanediol 35%",0.150
same,A320 minus blank (turbidity),"[1]; NaCl 0.10 M, 2-methyl-2,4-pentanediol 40%",0.083
same,A320 minus blank (turbidity),"[1]; NaCl 0.10 M, 2-methyl-2,4-pentanediol 45%",0.087
same,A320 minus blank (turbidity),"[1]; NaCl 0.25 M, 1-propanol 0%",1.804
same,A320 minus blank (turbidity),"[1]; NaCl 0.25 M, 1-propanol 2.5%",2.397
same,A320 minus blank (turbidity),"[1]; NaCl 0.25 M, 1-propanol 5%",2.300
same,A320 minus blank (turbidity),"[1]; NaCl 0.25 M, 1-propanol 10%",2.105
same,A320 minus blank (turbidity),"[1]; NaCl 0.25 M, 1-propanol 15%",1.392
same,A320 minus blank (turbidity),"[1]; NaCl 0.25 M, 1-propanol 25%",0.022
same,A320 minus blank (turbidity),"[1]; NaCl 0.25 M, 2-methyl-2,4-pentanediol 2.5%",2.061
same,A320 minus blank (turbidity),"[1]; NaCl 0.25 M, 2-methyl-2,4-pentanediol 5%",2.399
same,A320 minus blank (turbidity),"[1]; NaCl 0.25 M, 2-methyl-2,4-pentanediol 10%",2.434
same,A320 minus blank (turbidity),"[1]; NaCl 0.25 M, 2-methyl-2,4-pentanediol 15%",2.433
same,A320 minus blank (turbidity),"[1]; NaCl 0.25 M, 2-methyl-2,4-pentanediol 20%",1.006
same,A320 minus blank (turbidity),"[1]; NaCl 0.25 M, 2-methyl-2,4-pentanediol 30%",−0.015
same,A320 minus blank (turbidity),"[1]; NaCl 0.25 M, 2-methyl-2,4-pentanediol 35%",−0.065
same,A320 minus blank (turbidity),"[1]; NaCl 0.25 M, 2-methyl-2,4-pentanediol 40%",0.015
same,A320 minus blank (turbidity),"[1]; NaCl 0.25 M, 2-methyl-2,4-pentanediol 45%",−0.012
same,A320 minus blank (turbidity),"[1]; NaCl 0.5 M, 1-propanol 0%",1.953
same,A320 minus blank (turbidity),"[1]; NaCl 0.5 M, 1-propanol 2.5%",2.170
same,A320 minus blank (turbidity),"[1]; NaCl 0.5 M, 1-propanol 5%",1.629
same,A320 minus blank (turbidity),"[1]; NaCl 0.5 M, 1-propanol 10%",1.313
same,A320 minus blank (turbidity),"[1]; NaCl 0.5 M, 1-propanol 15%",0.305
